# Source: paper PMC9552169, “Mutations Increasing Cofactor Affinity, Improve Stability and Activity of a Baeyer–Villiger Monooxygenase” (ACS Catalysis, 2022)
# Tested on: O=C1CCCCC1
# Assay: purified protein
# Conditions: table prints only 'substrate', cyclohexanone taken from the standard assay (Figure 2: 100 μM NADPH, 50 mM TrisHCl pH 8.5)
substance,measurement,value
CHMOAcineto (CHMOwt) (Acinetobacter johnsonii),Km,6.7 ± 2.0 µM
